Experimental data from US11673947B2, “Target tissue-specific antigen-binding molecule” (Chugai Seiyaku Kabushiki Kaisha, priority 2012, dated 2023).

Experiments:
[1] = molecular target: HSA (human serum albumin) (Homo sapiens, UniProt P02768); assay: Phage ELISA, binding to HSA in the presence or absence of adenosine and/or ATP; conditions: with or without 10 mM adenosine and ATP
Procedure: Phage-containing culture supernatants were collected according to a conventional method (Methods Mol. Biol. (2002) 178, 133-145) from single colonies of E. coli obtained by the method described above. The collected culture supernatants were treated by ultrafiltration using NucleoFast 96 (MACHERY-NAGEL). 100 μl of the culture supernatants were added to each well of NucleoFast 96, and it was centrifuged (4500 g for 45 minutes) to remove flow through. After addition of 100 μl of H2O, the NucleoFast 96 was washed by centrifugation (4500 g for 30 minutes). Finally, 100 μl of TBS was added, and the NucleoFast 96 was allowed to stand for five minutes at room temperature. A phage suspension was collected from the supernatant in each well of the NucleoFast 96.
The purified phages, to which TBS or (adenosine+ATP)/TBS was added, were subjected to ELISA by the following procedure. A StreptaWell 96 microtiter plate (Roche) was coated overnight with 100 μl of TBS containing biotin-labeled antigen. […] Then, the developed color was assessed by measuring absorbance at 450 nm. […]
First, a StreptaWell 96 microtiter plate (Roche) was coated at room temperature for one hour or more with 100 μl of TBS containing a biotin-labeled antigen. […] Then, the developed color was assessed by measuring absorbance at 450 nm (FIGS. 25, 26, and 27). […]

human IgA-Fc = human IgA-Fc (Homo sapiens, UniProt P01876); assay: Phage ELISA, binding to human IgA-Fc in the presence or absence of adenosine and ATP (monovalent / multivalent display)
Chain of human IgA-Fc (P01876 with tags, fused parts or gaps isoform P01876-1): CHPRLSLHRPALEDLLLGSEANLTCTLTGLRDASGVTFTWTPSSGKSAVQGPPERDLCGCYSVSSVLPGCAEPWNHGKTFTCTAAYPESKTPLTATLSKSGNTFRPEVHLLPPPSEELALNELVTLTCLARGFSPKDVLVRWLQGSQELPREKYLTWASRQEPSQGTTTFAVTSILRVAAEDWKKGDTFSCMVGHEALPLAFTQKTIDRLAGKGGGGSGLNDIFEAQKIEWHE
Procedure: Culture supernatants containing phages were collected according to a conventional method (Methods Mol. Biol. (2002) 178, 133-145) from single colonies of E. coli obtained by the method described above. The collected culture supernatants were ultrafiltrated using NucleoFast 96 (MACHERY-NAGEL). 100 μl of the culture supernatants were added to each well of NucleoFast 96 and centrifuged (4500 g for 45 minutes) to remove flow-through. After 100 μl of H2O was added, the NucleoFast 96 was washed by centrifugation (4500 g for 30 minutes). Finally, 100 μl of TBS was added, and the NucleoFast 96 was allowed to stand for five minutes at room temperature. A phage solution contained in the supernatant in each well was collected.
Purified phages, to which TBS or (adenosine+ATP)/TBS was added, were subjected to ELISA by the following procedure. A StreptaWell 96 microtiter plate (Roche) was coated overnight with 100 μl of TBS containing a biotin-labeled antigen. After the antigen was removed from each well of the plate by washing with TBST, the wells were blocked with 250 μl of 2% skim milk/TBS for one hour or more. 2% skim milk/TBS was removed, and then the prepared, purified phages were added to each well. […] Then, the developed color was assessed by measuring absorbance at 450 nm.

Molecule | antigen-binding activity to human serum albumin (HSA) in the absence of ATP and adenosine [1] | antigen-binding activity in the presence of adenosine and ATP (human IgA-Fc)
HSADSA1-6_020: clone with antigen-binding activity to HSA in the absence of ATP and adenosine (antibody, V domains shown) VH: EVQLVESGGDLVKPGGGLRLSCAASGFTFSSHTMNWVRQAPGKGLEWVSSISSRSNHATYADSVKGRFTISRDNAKNSLYLQMNSLRAEDTAVYYCARFGKKGRYLWVFDYWGQGTLVTVSS VL: QSALTQPPSASGSPGQTVTISCTGTSSDVGDYNYVSWYQQHPGKAPKLMIYYVSKRPSGVPDRFSGSKSGNTASLTVSGLQAEDEADYFCSLTTDSLNPVFGGGTKLTVL | had antigen-binding activity | 
IADL3C5-4_048: clone binding human IgA-Fc in the presence of adenosine and ATP; SEQ ID NOs: 100 and 101 (antibody, listed as Homo sapiens, V domains shown) VH: EVQLVESGGDLVKPGGGLRLSCAASGFTFSGHTMNWVRQAPGKGLEWVSSISSRSNHIYYADSVKGRFTISRDNAKNSLYLQMNSLRAEDTAVYYCARYGRKFMMNWVFDYWGQGTLVTVSS VL: QSALTQPPSASGSPGQTVTISCTGTSTDVGFYNYVSWYQQHPGKAPKLMIYQNSKRPSGVPDRFSGSKSGNTASLTVSGLQAEDEADYFCSLRSSNLSPGFGGGTKLTVL |  | exhibits antigen-binding activity
